Experimental data from US11597951B2 (Lygos, Inc., priority 2018, dated 2023).

Assays:
[1] = tested on: S. cerevisiae BY4741 yeast cells; test: Production of malonate in yeast expressing various malonyl-CoA hydrolases; format: cell-based; conditions: S. cerevisiae BY4741, SD-Ura, 30° C., 140 h of fermentation; mean±S.D.; n=4
Excerpt: Nucleic acids encoding various malonyl-CoA hydrolases provided by this disclosure [EHD3 (E124S), B9IZZ9-1, F0PNG8-1, H0NHL7, C3ALI3-1, Q81DR3-1, A4XS22-1, E2XN63-1, A5W8H3-1 and F6AA82-2] were amplified by PCR from plasmids using the primers listed in Table 4. The purified PCR products were cloned downstream of the TEF1 promoter and upstream of the CYC1 terminator in a shuttle vector containing an ampicillin resistance cassette, a PMB1 origin of replication, a CEN/ARS origin of replication and a URA3 selection marker. The resulting plasmids were transformed into E. coli competent host cells and selected on LB agar plates containing Cb^50. Following overnight incubation at 37° C., individual colonies were inoculated in 2 ml of LB-Cb^50 in a 48-well plate and grown for 5 h at 37° C. on a shaker before the plasmids were isolated and confirmed by sequencing.
S. cerevisiae BY4741 yeast cells were used as host for the vectors for expression of the various malonyl-CoA hydrolases. The plasmid vectors were individually introduced into the yeast host cells using standard procedures. […]
An individual colony for each transformant picked was inoculated into a 50 μl aliquot of SD-Ura medium in a 96-well plate. […] No malonate was detected in samples consisting of medium not inoculated with yeast cells. […]

[2] = tested on: E. coli strain K12; test: In vivo production of malonate in E. coli using S. cerevisiae EHD3 malonyl-CoA hydrolases; format: cell-based
Protocol: This example describes the host cells and culture conditions resulting in the in vivo production of malonate using a heterologous EHD3 malonyl-CoA hydrolase in an E. coli host cell. E. coli strain K12 was transformed with vectors containing wild-type EHD3, EHD3 (E124A), […], EHD3 (E124S), EHD3 (E124A, E308V) or an empty vector negative control. Transformants were streaked on LB agar plates (Cm^50, 2% glucose). Following overnight growth at 37° C., individual colonies were inoculated into 3 ml LB (Cm^50, 2% glucose) in a 48-well plate. Cultures were incubated on a plate shaker at 37° C. for 6 hours, at which point each culture was inoculated 1% v/v into M9 minimal medium supplemented with Cm^50 and a mixed carbon source (0.5% glycerol, 0.05% glucose, 0.2% lactose) in a 48-well plate. Cultures were incubated on a plate shaker at 30° C., and a 500 μL sample of the fermentation broth was removed for analysis after 48 hours incubation.
Samples were centrifuged (×6000 g, 1 min) and the supernatant analyzed for malonate quantification. Chemical standards were prepared in […] of water. The separation of malonate was conducted on a Shimadzu Prominence XR UPLC connected to a refractive index detector and UV detector monitoring 210 nm. Product separation was performed on a Bio-Rad Fermentation Monitoring column. The UPLC was programmed to run isocratically using 5 mM H2504 as the eluant with a flow rate of 600 μL per minute. 10 μL were injected per sample, and the sample plate temperature was held at 4° C. Malonate standards began eluting at […]. […] Malonate concentrations (mg/1) were calculated by comparison to a standard curve prepared from authentic malonate.

B1: EHD3 (E124S) (protein, UniProt P28817 1-500, looked up, variant E124S)
Small ribosomal subunit …: MLRNTLKCAQLSSKYGFKTTTRTFMTTQPQLNVTDAPPVLFTVQDTARVITLNRPKKLNALNAEMSESMFKTLNEYAKSDTTNLVILKSSNRPRSFCAGGDVATVAIFNFNKEFAKSIKFFTDSYSLNFQIATYLKPIVTFMDGITMGGGVGLSIHTPFRIATENTKWAMPEMDIGFFPDVGSTFALPRIVTLANSNSQMALYLCLTGEVVTGADAYMLGLASHYVSSENLDALQKRLGEISPPFNNDPQSAYFFGMVNESIDEFVSPLPKDYVFKYSNEKLNVIEACFNLSKNGTIEDIMNNLRQYEGSAEGKAFAQEIKTKLLTKSPSSLQIALRLVQENSRDHIESAIKRDLYTAANMCMNQDSLVEFSEATKHKLIDKQRVPYPWTKKEQLFVSQLTSITSPKPSLPMSLLRNTSNVTWTQYPYHSKYQLPTEQEIAAYIEKRTNDDTGAKVTEREVLNHFANVIPSRRGKLGIQSLCKIVCERKCEEVNDGLRWK
- Malonate Peak Area [1]: 94,721 ± 8,115
- malonate production relative to wild-type EHD3 ([2]; E. coli K12, 48 hours): significant (p<0.05, t-test) increase
- Malonate Concentration ([2]; E. coli K12, M9 minimal medium, 30° C., 48 hours, mean±std dev, n=3): 82.3 ± 7.8 mg/L
